For experiment [1], the target named is Recombinant human FAM19A5 protein (His-tagged) (human) (UniProt Q7Z5A7). As to the kind of experiment: ELISA, N'-Term His; R² 0.9813. For orientation: In an ELISA, binding on a coated surface is turned into a signal by an enzyme label.
Experiment [2] has the same target. Nature of the experiment: ELISA, N'-Term His. The arrangement: unit not given here.
For experiment [3] the target is unchanged. Nature of the experiment: OCTET (BLI), His-tagged FAM19A5 on Ni-NTA biosensors, antibody at 1.1-300 nM.
For experiment [4] the target is unchanged. Nature of the experiment: ELISA, N'-Term His; R² 0.9329.
The target is the same in experiment [5]. As to the kind of experiment: two-site sandwich ELISA, capture antibody P2-A03; O.D. 0.15 / 0.16 / 0.14 at antigen 100 / 10 / 0 (ng/mL); grey box.
Experiment [6] has the same target. As to the kind of experiment: two-site sandwich ELISA, capture antibody 2-13; O.D. 1.92 / 0.65 / 0.21 at antigen 100 / 10 / 0 (ng/mL); white box.
The target is the same in experiment [7]. As to the kind of experiment: two-site sandwich ELISA, capture antibody P2-F11; O.D. 0.14 / 0.16 / 0.15 at antigen 100 / 10 / 0 (ng/mL); grey box.
Experiment [8] shares this target. Nature of the experiment: two-site sandwich ELISA, capture antibody 3-2; O.D. 1.7 / 0.3 / 0.13 at antigen 100 / 10 / 0 (ng/mL); white box.
Experiment [9] shares this target. Nature of the experiment: two-site sandwich ELISA, capture antibody 1-65; O.D. 0.12 / 0.12 / 0.12 at antigen 100 / 10 / 0 (ng/mL); grey box.
For experiment [10] the target is unchanged. As to the kind of experiment: ELISA, N'-Term His; R² 0.8823.
Experiment [11] has the same target. Nature of the experiment: two-site sandwich ELISA, capture antibody 3-2; O.D. 2.02 / 1.81 / 0.13 at antigen 100 / 10 / 0 (ng/mL); white box.
Experiment [12] shares this target. As to the kind of experiment: ELISA, N'-Term His; R² 0.9692.
Experiment [13] has the same target. Nature of the experiment: two-site sandwich ELISA, capture antibody P2-A03; O.D. 0.09 / 0.09 / 0.09 at antigen 100 / 10 / 0 (ng/mL); grey box.
Experiment [14] shares this target. Nature of the experiment: two-site sandwich ELISA, capture antibody 2-13; O.D. 1.83 / 2.04 / 0.29 at antigen 100 / 10 / 0 (ng/mL); white box.
Experiment [15] has the same target. As to the kind of experiment: two-site sandwich ELISA, capture antibody 1-65; O.D. 1.25 / 0.2 / 0.12 at antigen 100 / 10 / 0 (ng/mL); grey box but for the cell of 100.
Experiment [16] has the same target. Nature of the experiment: two-site sandwich ELISA, capture antibody 13B4; O.D. 0.2 / 0.18 / 0.18 at antigen 100 / 10 / 0 (ng/mL); grey box.
For experiment [17] the target is unchanged. As to the kind of experiment: ELISA, N'-Term His; R² 0.9105.
Experiment [18] has the same target. Nature of the experiment: ELISA, N'-Term His; R² -0.2016.
Experiment [19] shares this target. Nature of the experiment: ELISA, N'-Term His; R² 0.9746.
Experiment [20] has the same target. As to the kind of experiment: two-site sandwich ELISA, capture antibody 2-13; O.D. 1.88 / 1.72 / 0.22 at antigen 100 / 10 / 0 (ng/mL); white box.
For experiment [21] the target is unchanged. Nature of the experiment: two-site sandwich ELISA, capture antibody P2-F11; O.D. 0.15 / 0.15 / 0.14 at antigen 100 / 10 / 0 (ng/mL); grey box.
For experiment [22] the target is unchanged. As to the kind of experiment: two-site sandwich ELISA, capture antibody 3-2; O.D. 1.91 / 1.66 / 0.16 at antigen 100 / 10 / 0 (ng/mL); white box.
Experiment [23] shares this target. As to the kind of experiment: two-site sandwich ELISA, capture antibody 1-65; O.D. 0.16 / 0.15 / 0.15 at antigen 100 / 10 / 0 (ng/mL); grey box.
The target is the same in experiment [24]. Nature of the experiment: two-site sandwich ELISA, capture antibody 13B4; O.D. 0.27 / 0.22 / 0.22 at antigen 100 / 10 / 0 (ng/mL); grey box.

Ten molecules from US20250236663A1 can be followed below.

The term Kd denotes the equilibrium constant for the complex coming apart.

B1: P1-A03 (antibody, V domains shown)
VH: QSVEESGGRLVTPGTPLTLTCTVSGFSLSSDYMSWVRQAPGEGLEWIGIIYPSTTTYYASWAKGRFTISKTSSTTVELKMTSLTTEDTATYFCARGSNWSSGMNLWGPGTLVTVSS
VL: ELVMTQTPPSLSASVGETVRIRCLASEDIYSGISWYQQKPEKPPTLLISGASNLESGVPPRFSGSGSGTDYTLTIGGVQAEDAATYYCLGGYSYSSTGLTFGAGTNVEIK
As for B1, the Kd in experiment [1] is 7.5 nM. Further, the Bmax in experiment [2] amounted to 2.45.

B2: Anti-FAM19A5 (13F7) (antibody, V domains shown)
VH: QVQLQEWGAGLLKPSETLSLTCAINAESFNGYSWTWIRQTPGKGLEWIGEISHFGSANYNPSLKSRATISADKSKNQFSLKLTSVTAVDTAVYYCARALRGTYSRFYYGMDVWGQGTTVTVSS
VL: DIVMTQTPLSLPVAPGEPASISCRSSQSLLHSNGYNYLDWYVQKPGQPPQLLIYLGSNRASGVPDRFSGSGSGTDFTLKISRVEAEDVGVYYCMQARQTPLTFGGGTKVEIK
For the molecule B2, the Kd in experiment [3] was determined as 0.25 nM; in experiment [4], 2.77 nM. Besides, the Bmax in experiment [2] came out at 3.04.

B3: Anti-FAM19A5 (13B4) (antibody, V domains shown)
VH: QVQLQESGPGLVKPSGTLSLNCAVSGGSISSSNWWSWVRQPPGKGLEWIGEIYHGGTTNYNPSLKGRVTMSVDKTKNQFSLRLSSVTAVDTAVYYCARWQLVGGLDVWGQGTTVTVSS
VL: SYELTQPLSVSVSPGQTASITCSGDKLGNVYASWYQQKPGQSPTLVIYQDNKRPSGIPERFSGSNSGKTATLTISGTQALDEADYYCQAWDSSTAVFGGGTKLTVL
For the molecule B3, the values for the equilibrium dissociation constant (Kd) in experiment [3] and in experiment [10] were 3.6 nM and 1.06 nM, respectively. Also, the S/N in experiment [5] was determined as 1.1; in [6], 3.1; in experiment [7], 1.1; in experiment [8], 2.3; in [9] it was 1. The Bmax in experiment [2] turned out to be 2.84.

B4: Anti-FAM19A5 (P2-F11) (antibody, V domains shown)
VH: QEQLVESGGRLVTPGTTLTLTCTVSGFSLSSYGVSWVRQAPGKGLEWIGYIANNYNPHYASWAKGRFTISKTSSTTVDLKMTSLTTEDTATYFCARDNYGMDPWGPGTLVTVSS
VL: ELDLTQTPSSVSAAVGGTVTINCQASQSVYNNKNLAWYQQKPGQPPKLLIYAASTLASGVSSRFKGSGSGTQFTLTISDVQCDDAATYYCQGEFSCSSADCNAFGGGTELEIL
B4: the S/N in [11] amounted to 13.9; in experiment [13] it was 1; in experiment [14], 7; in experiment [15] it was 1.7; in experiment [16], 1. The Kd in experiment [12] is 0.41 nM. Besides, the Bmax in experiment [2] was determined as 3.26.

B5: Anti-FAM19A5 (P1-F02) (antibody, V domains shown)
VH: QSLEESGGRLVTPGTPLTLTCTASGFSLSNYYMGWVRQAPGEGLEWIGIIYASGSTYYASWAKGRFTISKTSTTVDLKMTSLTTEDTATYFCARIDIGVGDYGWAYDRLDLWGQGTLVTVSS
VL: ELDMTQTPPSLSASVGETVRIRCLASEDIYSGISWYQQKPGKPPTLLIYGASNLESGVPPRFSGSGSGTDYTLTIGGVQAEDAATYYCLGGYSYSSITFGAGTNVEIK
B5: in experiment [2], the Bmax was found to be 0.172.

B6: Anti-FAM19A5 (P2-F07) (antibody, V domains shown)
VH: QSLEESGGRLVTPGTPLTLTCTASGFSLSSYYMNWVRQAPGKGLEWIGIIYPSGTTYYAGWAKGRFTISKTSTTVDLKITSPTSEDTATYFCARTVSGYFDIWGPGTLVTVSL
VL: ELDLTQTPPSLSASVGGTVTINCLASEDIYSALAWYQQKPGKPPTLLISGTSNLESGVPPRFSGSGSGTDYTLTIGGVQAEDAATYFCQGYSSYPLTFGAGTNVEIK
For B6, the Bmax in [2] turned out to be 0.134.

B7: Anti-FAM19A5 (P2-A01) (antibody, V domains shown)
VH: QEQLVESGGRLVTPGTPLTLSCTASGFFLSGYYMSWVRQAPGKGLEWIGIIYPSGSTDYASWAKGRFTISKTSTTVDLKITTPTTEDTATYFCARVAGYVGYGYETFFDIWGPGTLVTVSL
VL: ELVMTQTPPSLSASVGETVRIRCLASEDIYSGISWYQQKPGKPPTLLIYGASNLESGVPPRFSGSGSGSDYTLTIGGVQAEDAATYYCLGGVTYSSTGTHLTFGAGTNVEIK
For the molecule B7, the Kd in experiment [17] was determined as 9.09 nM. For the same molecule, in [2], the Bmax stood at 1.19.

B8: Anti-FAM19A5 (P1-A08) (antibody, V domains shown)
VH: QSLEESGGRLVTPGTPLTLTCTASGFSLSTYYMSWVRQAPGKGLEWIGIVYPSGTTYYANWAKGRFTISTASTTVDLMITSPTTEDTATYFCARGDSFGYGLWGPGTLVTVSS
VL: ELVLTQSPSVQVNLGQTVSLTCTADTLSRSYASWYQQKPGQAPVLLIYRDTSRPSGVPDRFSGSSSGNTATLTISGAQAGDEADYYCATSDGSGSNYQYVFGGGTQLTVT
With B8, the Kd in experiment [18] is 6.95 nM. Further, the Bmax in experiment [2] was 0.479.

B9: Anti-FAM19A5 (P2-A03) (antibody, V domains shown)
VH: QSVEESGGRLVTPGTPLTLTCTVSGFSLNNYDMSWVRQAPGKGLEYIGFMDTDGSAYYATWAKGRFTISRTSTTVDLKMTSPTTEDTATYFCARRGSSYYGGIDIWGPGTPVTVSL
VL: ELDLTQTPASVSEPVGGTVTIKCQASQSIGGNLAWYQQKPGQPPKLLIYRASTLASGVPSRFKGSGSGTDFTLTISDLECADAATYYCQSPAYDPAAYVGNAFGGGTELEIL
As for B9, in experiment [19], the Kd was determined as 0.61 nM. For the same molecule, the S/N came to 7.8 in [20]; 1.1 in [21]; 10 in [22]; 1 in experiment [23]; 1 in [24]. The Bmax in experiment [2] was 3.37.

B10: Anti-FAM19A5 (15A9) (antibody, V domains shown)
VH: QVQLQESGPGLVKPSETLSLTCTVSGGSISSYYWSWIRQPPGKGLEWIGYIYPSGSTNYNPSLKSRVTISVDTSKNQFSLNLKSVTAVDTAVYYCARVNPFGYYYAMDVWGQGTTVTVSS
VL: DIQMTQSPSSLSASVGDRITISCRASQSISTSLNWYQQTPGKAPRLLIYGASTLQSGVPSRFSGGGSGTDFSLTITSLQPEDFATYYCQESASIPRTFGQGTKLDIK
Regarding B10, the Kd in [3] was determined as 5.95 nM.
